In patent publication US20070010428A1, “Inhibitors of signal transduction and activator of transcription 3” (priority 2004, published 2007):

What was measured:
Stat3 = Stat3 (UniProt P40763); experiment: fluorescence polarization competition
[1] = target: Stat3 in IL-6 stimulated HepG2 hepatoma cells (UniProt P40763); experiment: cell-based or functional assay
Chain of Stat3 in IL-6 stimulated HepG2 hepatoma cells (P40763 2-770 limits assumed): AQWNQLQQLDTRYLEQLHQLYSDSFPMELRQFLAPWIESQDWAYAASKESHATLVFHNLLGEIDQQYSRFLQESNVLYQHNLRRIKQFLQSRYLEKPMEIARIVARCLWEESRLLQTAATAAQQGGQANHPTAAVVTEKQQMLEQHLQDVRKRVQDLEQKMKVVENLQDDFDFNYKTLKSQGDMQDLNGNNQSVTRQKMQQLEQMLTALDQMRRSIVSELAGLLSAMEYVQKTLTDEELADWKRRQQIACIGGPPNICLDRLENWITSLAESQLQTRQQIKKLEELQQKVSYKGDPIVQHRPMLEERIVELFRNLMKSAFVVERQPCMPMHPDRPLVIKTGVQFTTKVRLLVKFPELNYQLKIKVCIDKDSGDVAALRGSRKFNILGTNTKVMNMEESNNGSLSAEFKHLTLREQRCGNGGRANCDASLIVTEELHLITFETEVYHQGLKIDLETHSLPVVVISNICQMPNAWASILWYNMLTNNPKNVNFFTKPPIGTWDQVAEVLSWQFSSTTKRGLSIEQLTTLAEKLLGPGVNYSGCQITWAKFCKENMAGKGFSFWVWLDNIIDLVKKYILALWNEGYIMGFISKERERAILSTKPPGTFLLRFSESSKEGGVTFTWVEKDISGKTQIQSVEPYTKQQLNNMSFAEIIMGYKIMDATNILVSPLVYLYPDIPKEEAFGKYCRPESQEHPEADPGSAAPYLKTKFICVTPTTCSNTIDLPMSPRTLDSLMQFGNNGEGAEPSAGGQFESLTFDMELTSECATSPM

Chain of Stat3 (P40763 whole entry): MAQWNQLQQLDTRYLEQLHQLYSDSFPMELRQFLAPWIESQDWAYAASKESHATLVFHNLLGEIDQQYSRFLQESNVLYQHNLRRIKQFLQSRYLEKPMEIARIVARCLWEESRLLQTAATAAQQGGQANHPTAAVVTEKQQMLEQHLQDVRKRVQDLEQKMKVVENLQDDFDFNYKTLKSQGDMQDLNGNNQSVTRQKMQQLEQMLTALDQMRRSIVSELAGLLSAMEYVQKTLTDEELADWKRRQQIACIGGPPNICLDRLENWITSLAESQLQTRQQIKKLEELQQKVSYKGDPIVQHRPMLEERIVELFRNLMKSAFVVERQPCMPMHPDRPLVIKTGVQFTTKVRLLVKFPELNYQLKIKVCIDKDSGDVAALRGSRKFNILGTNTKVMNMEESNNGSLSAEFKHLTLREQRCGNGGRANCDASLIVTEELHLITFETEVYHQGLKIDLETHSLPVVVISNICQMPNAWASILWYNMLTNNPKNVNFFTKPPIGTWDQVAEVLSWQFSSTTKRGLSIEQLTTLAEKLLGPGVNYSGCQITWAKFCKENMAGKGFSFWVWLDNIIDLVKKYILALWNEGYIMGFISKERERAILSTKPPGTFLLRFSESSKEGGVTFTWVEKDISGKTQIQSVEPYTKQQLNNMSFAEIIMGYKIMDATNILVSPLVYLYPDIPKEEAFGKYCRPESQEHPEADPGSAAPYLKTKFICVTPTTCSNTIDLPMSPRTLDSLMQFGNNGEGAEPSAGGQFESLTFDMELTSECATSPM

With “Ac-pTyr-Haic-Gln-Thr-NH2 (10, DRCIV-35B)” the IC50 (Stat3) was 200 nM.

For “Ac-pTyr-Leu-Pro-Gln-Thr-Val-mts (peptide)”, the IL-6 stimulated luciferase reporter under the Stat3-responsive alpha2-macroglobulin promoter, HEPG2 cells, peptide at 50 and 100 µM (% of that of IL-6) [1] was 60 to 70.

“Ac-pTyr-Leu-methanoPro-Gln-Thr-NH2 (14, DRCIV-39B)” gave an IC50 (Stat3) of 200 nM.

Work on F2PmCinn-Cha-Pro-Gln-NHBn (8, PM-88D) yielded an IC50 (Stat3) of 2000 nM.

“F2PmCinn-Leu-Pro-Gln-Thr-Val-Ala-Ala-Val-Leu-Leu-Pro-Val-Leu-Leu-Ala-Ala-Pro-NH2 (peptide; the values are: luciferase activity remaining)” was tested, and the IL-6 stimulated luciferase reporter under the Stat3-responsive alpha2-macroglobulin promoter, HEPG2 cells, peptide at 50 µM [1] was 50% and the IL-6 stimulated luciferase reporter under the Stat3-responsive alpha2-macroglobulin promoter, HEPG2 cells, peptide at 100 µM [1] was 25%.

Work on pCinn-Cha-Pro-Gln-NHBn (7, PM-66D) yielded an IC50 (Stat3) of 50 nM.

Work on “pCinn-Cha-methanoPro-Gln-NHBn (15, PM-84D)” yielded an IC50 (Stat3) of 110 nM.

For pCinn-Leu-Pro-Gln-Thr-NH2 (5, PM-50D), the IC50 (Stat3) was 110 nM.

pInd-Cha-Pro-Gln-NHBn (9, PM-67D) gave an IC50 (Stat3) of 100 nM.
